Experimental data reported in IntAct's records for PubMed 28176834.

B1: DNA topoisomerase 3-beta-1 (Homo sapiens), O95985 (parent)
chain: MKTVLMVAEKPSLAQSIAKILSRGSLSSHKGLNGACSVHEYTGTFAGQPVRFKMTSVCGHVMTLDFLGKYNKWDKVDPAELFSQAPTEKKEANPKLNMVKFLQVEGRGCDYIVLWLDCDKEGENICFEVLDAVLPVMNKAHGGEKTVFRARFSSITDTDICNAMACLGEPDHNEALSVDARQELDLRIGCAFTRFQTKYFQGKYGDLDSSLISFGPCQTPTLGFCVERHDKIQSFKPETYWVLQAKVNTDKDRSLLLDWDRVRVFDREIAQMFLNMTKLEKEAQVEATSRKEKAKQRPLALNTVEMLRVASSSLGMGPQHAMQTAERLYTQGYISYPRTETTHYPENFDLKGSLRQQANHPYWADTVKRLLAEGINRPRKGHDAGDHPPITPMKSATEAELGGDAWRLYEYITRHFIATVSHDCKYLQSTISFRIGPELFTCSGKTVLSPGFTEVMPWQSVPLEESLPTCQRGDAFPVGEVKMLEKQTNPPDYLTEAELITLMEKHGIGTDASIPVHINNICQRNYVTVESGRRLKPTNLGIVLVHGYYKIDAELVLPTIRSAVEKQLNLIAQGKADYRQVLGHTLDVFKRKFHYFVDSIAGMDELMEVSFSPLAATGKPLSRCGKCHRFMKYIQAKPSRLHCSHCDETYTLPQNGTIKLYKELRCPLDDFELVLWSSGSRGKSYPLCPYCYNHPPFRDMKKGMGCNECTHPSCQHSLSMLGIGQCVECESGVLVLDPTSGPKWKVACNKCNVVAHCFENAHRVRVSADTCSVCEAALLDVDFNKAKSPLPGDETQHMGCVFCDPVFQELVELKHAASCHPMHRGGPGRRQGRGRGRARRPPGKPNPRRPKDKMSALAAYFV
B2: Tudor domain-containing protein 3 (Homo sapiens), Q9H7E2-3 (parent)
chain: MAQVAGAALSQAGWYLSDEGIEACTSSPDKVNVNDIILIALNTDLRTIGKKFLPSDINSGKVEKLEGPCVLQIQKIRNVAAPKDNEESQAAPRMLRLQMTDGHISCTAVEFSYMSKISLNTPPGTKVKLSGIVDIKNGFLLLNDSNTTVLGGEVEHLIEKWELQRSLSKHNRSNIGTEGGPPPFVPFGQKCVSHVQVDSRELDRRKTLQVTMPVKPTNDNDEFEKQRTAAIAEVAKSKETKTFGGGGGGARSNLNMNAAGNRNREVLQKEKSTKSEGKHEGVYRELVDEKALKHITEMGFSKEASRQALMDNGNNLEAALNVLLTSNKQKPVMGPPLRGRGKGRGRIRSEDEEDLGNARPSAPSTLFDFLESKMGTLNVEEPKSQPQQLHQGQYRSSNTEQNGVKDNNHLRHPPRNDTRQPRNEKPPRFQRDSQNSKSVLEGSGLPRNRGSERPSTSSVSEVWAEDRIKCDRPYSRYDRTKDTSYPLGSQHSDGAFKKRDNSMQSRSGKGPSFAEAKENPLPQGSVDYNNQKRGKRESQTSIPDYFYDRKSQTINNEAFSGIKIEKHFNVNTDYQNPVRSNSFIGVPNGEVEMPLKGRRIGPIKPAGPVTAVPCDDKIFYNSGPKRRSGPIKPEKILESSIPMEYAKMWKPGDECFALYWEDNKFYRAEVEALHSSGMTAVVKFIDYGNYEEVLLSNIKPIQTEAWEEEGTYDQTLEFRRGGDGQPRRSTRPTQQFYQPPRARN
partner: B1 chain

Variants of: B1
Conditions: with TDRD3, Q9H7E2-3

| effect of a mutation on the interaction | Variant |
| --- | --- |
| with no effect | D266A |

Variants of: B2
Conditions: with top3b_human TOP3B, O95985

| effect of a mutation on the interaction | Variant |
| --- | --- |
| with no effect | V79S |
| with no effect | R96A |
| with no effect | R96M |
| with no effect | R96M;F111Y |
| decreasing interaction strength | V79S;A80S;A81S;P82S |
| with no effect | V109M;F111Y;F139V |
| with no effect | V109M |
| disrupting interaction strength | V109S |
| disrupting interaction strength | M94S |
| disrupting interaction strength | V109S;F111S |
| decreasing interaction strength | V79S;P82S |
| with no effect | A80S;A81Q;A90K;A91P;P92S |
| with no effect | R96M;V109M |
| decreasing interaction strength | P92S |
| with no effect | R96M;F111Y;F139V |
| with no effect | L141S |
| disrupting interaction strength | F139S;L141S |
| decreasing interaction strength | R96M;V109M;F111Y;F139V |
| disrupting interaction strength | P92S;M94S |
| with no effect | R96M;F139V |
| decreasing interaction strength | F139S |
| with no effect | F139V |
| with no effect | R96M;V109M;F111Y |
| with no effect | P82S |
| with no effect | R96M;V109M;F139V |
| with no effect | A80S;A81S |
| with no effect | F111S |
| with no effect | F111Y |
